Experimental data reported in publication doi:10.1101/681007 (bioRxiv, 2019).
Blank lines part the entries; values can stand above or below the molecule they belong to.

Tests used:
[1] = biological target: Human TAp63α (aa10-616, TEV site inserted at aa570 and V599M) (human); assay: SEC
native gel or EMSA = biological target: the molecule itself; assay: native gel or EMSA

stoichiometry N [1]: 2
Molecule: Human TAp63α (aa10-616, TEV site inserted at aa570 and V599M) (natural protein)

B1: TAp63α, endogenous in mouse ovaries, untreated (closed dimeric form) (natural protein, mouse (endogenous in ovaries), UniProt O88898-1 40-680, looked up)
chain: MSQSTQTSEFLSPEVFQHIWDFLEQPICSVQPIELNFVDEPSENGATNKIEISMDCIRMQDSDLSDPMWPQYTNLGLLNSMDQQIQNGSSSTSPYNTDHAQNSVTAPSPYAQPSSTFDALSPSPAIPSNTDYPGPHSFDVSFQQSSTAKSATWTYSTELKKLYCQIAKTCPIQIKVMTPPPQGAVIRAMPVYKKAEHVTEVVKRCPNHELSREFNEGQIAPPSHLIRVEGNSHAQYVEDPITGRQSVLVPYEPPQVGTEFTTVLYNFMCNSSCVGGMNRRPILIIVTLETRDGQVLGRRCFEARICACPGRDRKADEDSIRKQQVSDSAKNGDGTKRPFRQNTHGIQMTSIKKRRSPDDELLYLPVRGRETYEMLLKIKESLELMQYLPQHTIETYRQQQQQQHQHLLQKQTSMQSQSSYGNSSPPLNKMNSMNKLPSVSQLINPQQRNALTPTTMPEGMGANIPMMGTHMPMAGDMNGLSPTQALPPPLSMPSTSHCTPPPPYPTDCSIVSFLARLGCSSCLDYFTTQGLTTIYQIEHYSMDDLASLKIPEQFRHAIWKGILDHRQLHDFSSPPHLLRTPSGASTVSVGSSETRGERVIDAVRFTLRQTISFPPRDEWNDFNFDMDSRRNKQQRIKEEGE
stoichiometry N (native gel or EMSA): 2

B2: TAp63α, endogenous in mouse ovaries, phosphorylated after 0.5 Gy γ-irradiation (active tetrameric form) (natural protein, mouse (endogenous in ovaries), UniProt O88898-1 40-680, looked up)
chain: B1 chain
modifications: phosphorylated (phosphorylation dependent mobility shift on SDS-PAGE); the sites were not determined in this experiment
stoichiometry N (native gel or EMSA): 4
